The results in this text go back to US10118965B2, “Compositions and methods related to anti-EGFR antibody drug conjugates” (LegoChem Biosciences, Inc., priority 2015, dated 2018).

Where a SMILES comes first, the peptide text is derived from it. [ ]: non-standard residue; d: D form. Dolaproine = CO[C@@H]([C@@H]1CCCN1)[C@@H](C)C(=O)O; Dil = CC[C@H](C)[C@H](NC)[C@@H](CC(=O)O)OC; NMeV = CN[C@H](C(=O)O)C(C)C

In one experiment the test system is MCF-7 cells. The experiment can be described thus: In vitro cytotoxicity, SRB assay, MCF-7 cells. To be noted: MCF7 (EGFR low), 72 hours. The format is cell-based. As for the experimental part: (§1) A431 cells, which express high levels of EGFR, and MCF-7 cells, which express low levels of EGFR, were plated at about 1000 cells per well in a 96-well plate in 100 μL of media. HCC-827 cells, which express an intermediate level of EGFR were plated at about 500 cells per well in a 96-well plate in 100 μL of media. The cells were incubated at 37° C. in 5% CO2 for 24 hours. […] The cells were incubated for 72 hours and then fixed for 1 hour at 4° C. after adding 100 μL of ice-cold 10% tricholoracetic acid to each well. Viable cells were counted using SRB dye (Sulphorhodamine, Sigma S 1402) and a Molecular Devices SpectraMax 190 plate reader running Softmax Pro v5, monitoring absorbance at 540 nm (FIG. 12).
Background: Sulforhodamine B stains cellular protein and so reports cell mass.

Another experiment has as its system A431 cells. The experiment can be described thus: In vitro cytotoxicity, SRB assay, A431 cells. The note with it: A431 (EGFR high), 72 hours. Type of experiment: cell-based, human. The procedure: as §1
For the next experiment, the system named is HCC-827 cells. The experiment in a line: In vitro cytotoxicity, SRB assay, HCC-827 cells. The format is cell-based. To be noted: HCC-827 (EGFR Intermediate: del E746_A750), 72 hours. The procedure: as §1
Experiment [1] has as its target epidermal growth factor receptor (EGFR) (human) (UniProt P00533). The experiment in a line: flow cytometry on A431 cells, 0.5 µg/mL primary antibody, anti-human IgG1-PE secondary.
The target is the same in experiment [2]. The experiment can be described thus: flow cytometry on A431 cells, 2 µg/mL human IgG1 negative control, anti-human IgG1-PE secondary (cell only: 11.7). On the technique in general: In flow cytometry, cells or beads pass a laser one at a time.
Experiment [3] shares this target. The experiment in a line: flow cytometry on A431 cells, 2 µg/mL human IgG1 negative control, anti-human IgG1-PE secondary (cell only: 10.84).
Experiment [4] shares this target. The experiment in a line: flow cytometry on A431 cells, 2 µg/mL human IgG1 negative control, anti-human IgG1-PE secondary (cell only: 11.76).

Usually IC50 stands for the midpoint of a concentration-inhibition curve. In the case of `CC[C@H](C)[C@@H]([C@@H](CC(=O)N1CCC[C@H]1[C@H](OC)[C@@H](C)C(=O)N[C@@H](Cc1ccccc1)C(=O)OC)OC)N(C)C(=O)[C@@H](NC(=O)[C@@H](NC)C(C)C)C(C)C` [MMAF-Ome, monomethyl auristatin F-Ome] (H-[NMeV]V[Dil][Dolaproine]F-OMe), the concentration for half-maximal inhibition (IC50) amounted to 1.81 nM in the experiment with MCF-7 cells, 1.11 nM in the experiment with A431 cells and 1.99 nM with HCC-827 cells.

Regarding Erbitux(LC)-G7CVIM (antibody), the Geometric Mean (PE-A fluorescence) in experiment [1] was determined as 160.

Take Human IgG1 (antibody): the Geometric Mean (PE-A fluorescence) in experiment [2] was 10.9. For the same molecule, the Peak Channel (PE-A fluorescence) in experiment [3] stood at 11.4. The Median (PE-A fluorescence) in experiment [4] came out at 11.4.
